How the values were obtained:
[1] = molecular target: T1, recombinant human RAGE (plate coat of the competition ELISA of Example 1.4); assay: competition ELISA on plates coated with recombinant human RAGE (2 µg/mL); competitor: biotinylated hybridoma-derived 7F9 (7F9-biotin), streptavidin-HRP, OD 450 nm; the unit comes from the axis 'Log MAbs (M)'
T1 construct: not shown: The carrier of the coated preparation, if it had one
Protocol: (§1) The purified chimeric anti-human RAGE monoclonal antibodies were tested for their ability to bind human RAGE in a competition ELISA. […] Equal volumes (50 μL) of each recombinant chimeric anti-human RAGE monoclonal antibodies or hybridoma-derived anti-human RAGE monoclonal antibodies and each corresponding biotinylated hybridoma-derived anti-RAGE mAbs were mixed. 50 μL of this mixture was then added to ELISA plates pre-coated with recombinant human RAGE at 2 μg/mL and incubated for 1.5 hours at room temperature. Wells were washed three times with PBS+0.05% Tween-20. Streptavidin HRP (1 mg/mL) was diluted 1:16000 in PBST+10% Superblock; 50 µL/well was added and the plates incubated for 1 hour at room temperature. Plates were washed 3 times with PBS+0.05% Tween-20. 50 µL of TMB solution (Sigma, St Louis, Mo.) was added to each well and incubated for 10 minutes at room temperature. The reaction was stopped by addition of IN sulphuric acid. Plates were read spectrophotometrically at a wavelength of 450 nm.

[2] = molecular target: T2, hRAGE (1-331) / human sRAGE 1-331, V#400 (human, UniProt Q15109 23-331); assay: Biacore SPR, mAb captured via anti-mouse Fc, human sRAGE 1-331 (V#400) injected, concurrent experiment, 1:1 fit
T2 construct: also called sRAGE [RAGE (1-331)]; RAGE (antigen of the Biacore runs)
Source text: Biacore 2000 and Biacore T100 instruments were used to measure anti-RAGE mAb binding kinetics. The assay format for mAb affinity analysis was Fc-based capture via immobilized anti-Fc antibodies. A standard amine coupling protocol was employed to immobilize Fc-specific IgG via primary amines to the carboxy-methyl (CM) dextran surface of CM5 sensorchips (Biacore). For the study of mouse anti-RAGE mAbs, anti-mouse Fc (Biacore, anti-mouse, BR-1005-14) was used as the immobilized capture reagent and for the study of humanized anti-RAGE mAbs, anti-human Fc (Pierce 31125) was used as the immobilized capture reagent. An automated protocol, available on the Biacore 2000 and Biacore T100, was used to immobilize 8000-10000 RU of capture reagent in all 4 flowcells of the sensorchip. Briefly, the CM-dextran surfaces were activated by freshly prepared 1:1 50 mM N-hydroxysuccinimide (NHS):200 mM 3-(N,N-dimethylamino) propyl-N-ethylcarbodiimide (EDC). Then the anti-Fc IgG capture reagent (20 ug/ml in 10 mM sodium acetate, pH4.5) was applied to the surface followed by deactivation of the surface and blocking of the residual reactive sites with 1M ethanolamine (pH 8.5).
Data were processed using either Biacore evaluation software or Scrubber 2.0 software (BioLogic Software). Briefly, the data were double referenced by first, subtracting the signal from the reference cell and second, by subtracting the signal from buffer-only injections. The double referenced data for the RAGE injection series were then fit globally to a 1:1 (Langmuir) binding model, which included a mass transfer term, to determine the binding kinetic rate constants, kₐ and kd, and the affinity, KD (kₐ=kₒₙ; kd=koff)

mouse RAGE (Mu-RAGE) = mouse RAGE (Mu-RAGE) (mouse, UniProt Q62151 23-340, limits assumed); assay: Biacore SPR (Table 7, column Mouse-RAGE); paragraph 283: 'Table 7 shows that 4E5 did not bind to mouse RAGE (Mu-RAGE)'
[3] = molecular target: T1, recombinant human RAGE (plate coat of …); assay: competition ELISA on plates coated with recombinant human RAGE (2 µg/mL); competitor: biotinylated hybridoma-derived 4E5 (4E5-biotin), streptavidin-HRP, OD 450 nm; the unit comes from the axis 'Log MAbs (M)'
Protocol: as §1

T2 sequence (Q15109 23-331): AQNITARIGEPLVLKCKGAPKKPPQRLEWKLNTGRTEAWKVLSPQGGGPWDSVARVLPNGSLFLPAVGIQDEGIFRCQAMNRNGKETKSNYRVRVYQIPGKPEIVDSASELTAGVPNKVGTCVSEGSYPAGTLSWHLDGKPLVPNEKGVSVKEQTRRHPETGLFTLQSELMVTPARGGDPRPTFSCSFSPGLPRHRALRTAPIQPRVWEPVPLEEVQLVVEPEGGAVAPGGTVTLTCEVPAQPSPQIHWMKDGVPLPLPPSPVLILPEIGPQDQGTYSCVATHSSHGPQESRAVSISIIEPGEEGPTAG
T1 sequence (chain, as listed by the source limits assumed): as the sequence (Q15109 23-331) above
Chain of mouse RAGE (Mu-RAGE) (Q62151 23-340 limits assumed): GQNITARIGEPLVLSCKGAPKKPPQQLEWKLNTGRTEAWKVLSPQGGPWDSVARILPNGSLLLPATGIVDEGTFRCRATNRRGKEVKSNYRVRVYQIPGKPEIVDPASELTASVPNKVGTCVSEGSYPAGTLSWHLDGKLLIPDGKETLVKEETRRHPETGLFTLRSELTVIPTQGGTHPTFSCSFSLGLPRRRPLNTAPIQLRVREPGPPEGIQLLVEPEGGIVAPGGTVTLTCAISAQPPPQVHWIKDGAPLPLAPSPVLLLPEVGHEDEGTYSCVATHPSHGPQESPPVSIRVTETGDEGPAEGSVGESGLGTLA

B1: anti-human RAGE monoclonal antibody 7F9 (murine, hybridoma-derived) (antibody, V domains shown)
VH: EEKLEESGGGLVQLGGSMKISCVASGFTLSNYWMDWVRQSPEKGLEWIAEIRLKSNYYSTHYAESVKGRFSISRDDSKGSVSLQMDNLTAEDTGIYFCARNAYWYFDVWGTGTTVTVSS
VL: DIVMTQSHKFMSTSVGDRVSATCKASQDVGTSVAWYQQKLGQSPKLLIYWTSTRHTGVPDRFTGSGSGTDFTLTISNVQSEDLADYFCQQYNNYPLTFGDGTKLELKR
notes: also called mAb7F9; MAb 7F9
EC50 [1]: 166 nM

B2: anti-human RAGE monoclonal antibody 11E6 (murine, hybridoma-derived) (antibody, V domains shown)
VH: QIQLVQSGPELKKPGETVKISCKASGYTFTNFGMNWVKQAPGKGLKWMGYINTNTGESIYSEEFKGRFAFSLETSASTAYLQINNLKNEDTATYFCARSRMVTAYGMDYWGQGTSVTVSS
VL: DIVMTQSQKFMSTSVGDRVSITCKASQNVGTAVAWYQQRPGQSPKLLIFSASNRYTGVPDRFTGSGSGTDFTLTLSNMQPEDLADYFCQQYSSYPLTFGVGTKLELKR
notes: also called mAb11E6; ML37-11E6
Kd [2]: 0.068 nM
koff [2]: 0.0013 s⁻¹
kon [2]: 1.8e+07 M⁻¹ s⁻¹

B3: anti-human RAGE monoclonal antibody 4E5 (murine, hybridoma-derived) (antibody, V domains shown)
VH: QVQLQQSGAELVRPGTSVKVSCKASGYAFNNYLIEWIKQRPGQGLEWIGVINPGSGGTNHNEKFKVKATLTADKSSSTAYIQLSSLTSDDSAVYFCARSAGTARARFAYWGQGTLVTVSA
VL: DIQMTQSPSSLSASLGERVSLTCRASQDIGSSLNWLQQEPDGTIKRLIYATSSLDSGVPKRFSGSRSGSDYSLTISSLESEDFVDYYCLQYASFPFTFGSGTKLEIKR
notes: also called mAb4E5; ML37-4E5
binding result (mouse RAGE (Mu-RAGE)): no binding
EC50 [3]: 244 nM

Source: patent US20170002075A1 (AbbVie / Abbott, published 2017)
